System: deep retinal vascular network formation in neonatal Balb/C mice
Assay: Neonatal mouse retinal angiogenesis model
Format: in vivo
Details: for % of eyes with 75-100% inhibition of deep vascular layer / % of eyes with 0-10% inhibition of deep vascular layer / % of eyes with 10-25% inhibition of deep vascular layer / % of eyes with 25-50% inhibition of deep vascular layer / % of eyes with 50-75% inhibition of deep vascular layer: intravitreal P4, read P12
Excerpt: Description of the Model. Immediately after birth (postnatal day zero; “P0”), retinal vasculature is virtually absent in the mouse. By four weeks after birth (P28) the retina has attained an adult pattern of retinal vessels coincident with the onset of vision. Physiological neovascularization of the retina occurs during this period via a stereotypical, biphasic developmental pattern of angiogenesis. During the primary phase of retinal vascular development, spoke-like peripapillary vessels grow radially from the central retinal artery and vein, becoming progressively interconnected by a capillary plexus that forms between them. This “inner retinal plexus” grows in area, volume and complexity, centrifugally, as a monolayer within the nerve fiber layer during the first seven to ten days following birth.
The second phase of retinal vessel formation begins between postnatal days 7 (P7) and 10 (P10) when collateral branches sprout from capillaries of the superficial plexus and penetrate into the retina where their tips branch and anastamose laterally to form a planar “deep vascular plexus”. While the deep vascular plexus is in place by P14, it undergoes extensive remodeling from P14 to P21. It is of interest to note that the formation of these vascular networks in the neonatal mouse are strikingly similar to the events occurring in the third trimester human fetus.
Advantages and Quantification of the Model. The reproducibility of the murine retinal development process and its easy accessibility in neonatal animals provide an opportunity to assess the efficacy of antiangiogenic compounds in a physiologically relevant model of angiogenesis. Additional advantages of the neonatal mouse model are the ability to qualitatively and quantitatively evaluate the angiostatic effect of putative antagonists of angiogenesis. Angiostatic activity was evaluated based upon the degree of angiogenesis in the deep, outer retinal vascular layer (secondary layer) that develops between P8 and P12. The appearance of the inner blood vessel network (primary layer) was evaluated for normal development and signs of toxicity.
Preparation of Compositions. Peptidomimetic integrin signaling inhibitor Compound (1) is solubilized in PBS at a concentration of about 20 mg/ml in PBS (1× concentration). T2-TrpRS is solubilized in PBS at a concentration of about 0.5 mg/ml (1× concentration). VEGF aptamer (pegaptanib sodium; Compound (2)) is solubilized in PBS at a concentration of about 2 mg/ml (1× concentration) to achieve an injection of approximately 1 μg/eye at 1× concentration. For all combination assays the compounds were prepared at 2 or 3 times the 1× concentration of each material and then combined to produce a final solution containing each individual compound at the same concentration as was used alone (e.g., 1×, 0.5×, 0.25× or 0.1×, as the case may be). For all assays, a single injection of 0.5 μl of PBS solutions of the drugs was administered intravitreally regardless of the number of compounds being injected. As used herein, the term “0.1×” refers to one tenth of the 1× concentration of a given material, “0.25×” refers to one quarter of the 1× concentration of a given material, “0.5×” refers to one half of the 1× concentration of a given material, and so forth for similar designations.
An in vivo angiogenesis assay in the neonatal mouse (Balb/C, The Jackson Laboratory, Bar Harbor, Me.) was used to evaluate the angiostatic activity of integrin signaling inhibitor Compound (1), T2-TrpRS, and VEGF aptamer Compound (2). Intravitreous injection and retina isolation was performed with a dissecting microscope (SMZ 645, Nikon, Japan). […] The samples (0.5 μl) were injected with a Hamilton syringe fitted with a 32-gauge needle (Hamilton Company, Reno, Nev.). The injection was made between the equator and the corneal limbus. During injection, the location of the needle tip was monitored by direct visualization to determine that it was in the vitreal cavity. […]

[1] = Table 12, composite data from the Examples, 1× (Compound (2) 0.5× to 1×)
[2] = Table 13A, 0.25 μg per eye, intravitreal P7, read P12
[3] = Table 13C low dosing, 0.1x (integrin ant. 1.0 μg, VEGF apt. 0.20 μg, T2-TrpRS 0.025 μg)

B1: T2-TrpRS: 43 kDa angiostatic T2 fragment of human tryptophanyl-tRNA synthetase, SEQ ID NO: 1 (protein)
chain: MSAKGIDYDKLIVRFGSSKIDKELINRIERATGQRPHHFLRRGIFFSHRDMNQVLDAYENKKPFYLYTGRGPSSEAMHVGHLIPFIFTKWLQDVFNVPLVIQMTDDEKYLWKDLTLDQAYSYAVENAKDIIACGFDINKTFIFSDLDYMGMSSGFYKNVVKIQKHVTFNQVKGIFGFTDSDCIGKISFPAIQAAPSFSNSFPQIFRDRTDIQCLIPCAIDQDPYFRMTRDVAPRIGYPKPALLHSTFFPALQGAQTKMSASDPNSSIFLTDTAKQIKTKVNKHAFSGGRDTIEEHRQFGGNCDVDVSFMYLTFFLEDDDKLEQIRKDYTSGAMLTGELKKALIEVLQPLIAEHQARRKEVTDEIVKEFMTPRKLSFDFQ
modifications: homo sapiens
With B1 the “% of eyes with 75-100% inhibition of deep vascular layer” value (Ex 10, 0.3× (1×=0.5 mg/ml)) was 25%, the “% of eyes with 0-10% inhibition of deep vascular layer” value (Ex 10, 1× (0.5 mg/ml)) was 8.3% and the “% of eyes with 10-25% inhibition of deep vascular layer” value (Ex 10, 1× (0.5 mg/ml)) was 16.7%. The “% of eyes with 25-50% inhibition of deep vascular layer” value (Ex 10, 1× (0.5 mg/ml)) was 25%, the “% of eyes with 50-75% inhibition of deep vascular layer” value (Ex 10, 1× (0.5 mg/ml)) was 8.7% and the “% of eyes with 75-100% inhibition of deep vascular layer” value (Ex 10, 1× (0.5 mg/ml)) was 41.7%. For the same molecule, the “% of eyes with 0-10% inhibition of deep vascular layer” value (Ex 10, 2× (1×=0.5 mg/ml)) was 8.3%, the “% of eyes with 10-25% inhibition of deep vascular layer” value (Ex 10, 2× (1×=0.5 mg/ml)) was 25% and the “% of eyes with 25-50% inhibition of deep vascular layer” value (Ex 10, 2× (1×=0.5 mg/ml)) was 0%. The “% of eyes with 50-75% inhibition of deep vascular layer” value (Ex 10, 2× (1×=0.5 mg/ml)) was 16.7%, the “% of eyes with 75-100% inhibition of deep vascular layer” value (Ex 10, 2× (1×=0.5 mg/ml)) was 41.7% and the “% of eyes with 0-10% inhibition of deep vascular layer” value (Ex 10, 3× (1×=0.5 mg/ml)) was 66.7%. For the same molecule, the “% of eyes with 10-25% inhibition of deep vascular layer” value (Ex 10, 3× (1×=0.5 mg/ml)) was 25%, the “% of eyes with 25-50% inhibition of deep vascular layer” value (Ex 10, 3× (1×=0.5 mg/ml)) was 8.7% and the “% of eyes with 50-75% inhibition of deep vascular layer” value (Ex 10, 3× (1×=0.5 mg/ml)) was 0%. For the same molecule, the “% of eyes with 75-100% inhibition of deep vascular layer” value (Ex 10, 3× (1×=0.5 mg/ml)) was 0%, the “% of eyes with 0-10% inhibition of deep vascular layer” value (Ex 11, 0.3× (1×=0.5 mg/ml)) was 33.3% and the “% of eyes with 10-25% inhibition of deep vascular layer” value (Ex 11, 0.3× (1×=0.5 mg/ml)) was 16.7%. For the same molecule, the “% of eyes with 25-50% inhibition of deep vascular layer” value (Ex 11, 0.3× (1×=0.5 mg/ml)) was 0%, the “% of eyes with 50-75% inhibition of deep vascular layer” value (Ex 11, 0.3× (1×=0.5 mg/ml)) was 0% and the “% of eyes with 75-100% inhibition of deep vascular layer” value (Ex 11, 0.3× (1×=0.5 mg/ml)) was 50%. For the same molecule, the “% of eyes with 0-10% inhibition of deep vascular layer” value (Ex 11, 1× (0.5 mg/ml)) was 14.3%, the “% of eyes with 10-25% inhibition of deep vascular layer” value (Ex 11, 1× (0.5 mg/ml)) was 14.3% and the “% of eyes with 25-50% inhibition of deep vascular layer” value (Ex 11, 1× (0.5 mg/ml)) was 7.1%. The “% of eyes with 50-75% inhibition of deep vascular layer” value (Ex 11, 1× (0.5 mg/ml)) was 14.3%, the “% of eyes with 75-100% inhibition of deep vascular layer” value (Ex 11, 1× (0.5 mg/ml)) was 50% and the “% of eyes with 0-10% inhibition of deep vascular layer” value (Ex 11, 2× (1×=0.5 mg/ml)) was 12.5%. For the same molecule, the “% of eyes with 10-25% inhibition of deep vascular layer” value (Ex 11, 2× (1×=0.5 mg/ml)) was 12.5%, the “% of eyes with 25-50% inhibition of deep vascular layer” value (Ex 11, 2× (1×=0.5 mg/ml)) was 12.5% and the “% of eyes with 50-75% inhibition of deep vascular layer” value (Ex 11, 2× (1×=0.5 mg/ml)) was 12.5%. For the same molecule, the “% of eyes with 75-100% inhibition of deep vascular layer” value (Ex 11, 2× (1×=0.5 mg/ml)) was 50%, the “% of eyes with 0-10% inhibition of deep vascular layer” value (Ex 11, 3× (1×=0.5 mg/ml)) was 14.3% and the “% of eyes with 10-25% inhibition of deep vascular layer” value (Ex 11, 3× (1×=0.5 mg/ml)) was 14.3%. For the same molecule, the “% of eyes with 25-50% inhibition of deep vascular layer” value (Ex 11, 3× (1×=0.5 mg/ml)) was 14.3%, the “% of eyes with 50-75% inhibition of deep vascular layer” value (Ex 11, 3× (1×=0.5 mg/ml)) was 28.5% and the “% of eyes with 75-100% inhibition of deep vascular layer” value (Ex 11, 3× (1×=0.5 mg/ml)) was 28.5%. For the same molecule, the “% of eyes with 0-10% inhibition of deep vascular layer” value (Ex 11, 5× (1×=0.5 mg/ml)) was 16.6%, the “% of eyes with 10-25% inhibition of deep vascular layer” value (Ex 11, 5× (1×=0.5 mg/ml)) was 33.3% and the “% of eyes with 25-50% inhibition of deep vascular layer” value (Ex 11, 5× (1×=0.5 mg/ml)) was 33.3%. For the same molecule, the “% of eyes with 50-75% inhibition of deep vascular layer” value (Ex 11, 5× (1×=0.5 mg/ml)) was 16.6%, the “% of eyes with 75-100% inhibition of deep vascular layer” value (Ex 11, 5× (1×=0.5 mg/ml)) was 0% and the “mice having 75-100% inhibition in the deep vascular layer, maximum over doses” value (Examples 10 and 11, 0.1× to 5×) was no more than 50%. For the same molecule, the “% of mice with 0-10% inhibition of deep vascular layer” value [1] was 23.9%, the “% of mice with 10-25% inhibition of deep vascular layer” value [1] was 17.4% and the “% of mice with 25-50% inhibition of deep vascular layer” value [1] was 15.2%. The “% of mice with 50-75% inhibition of deep vascular layer” value [1] was 8.7%, the “% of mice with 75-100% inhibition of deep vascular layer” value [1] was 34.8% and the “% of mice with 100% inhibition of deep vascular layer” value [1] was 2.2%. For the same molecule, the “% of mice with >95% inhibition of deep vascular layer” value [1] was 8.7%, the “Percentage of retinas with 0-10% neovascular inhibition” value [2] was 23.9% and the “Percentage of retinas with 10-25% neovascular inhibition” value [2] was 17.4%. For the same molecule, the “Percentage of retinas with 25-50% neovascular inhibition” value [2] was 15.2%, the “Percentage of retinas with 50-75% neovascular inhibition” value [2] was 8.7% and the “Percentage of retinas with 100% neovascular inhibition” value [2] was 2.2%. For the same molecule, the “Percentage of retinas with >75% neovascular inhibition” value [2] was 34.8%, the “Percentage of retinas with >90% neovascular inhibition” value [2] was 8.7% and the “Percentage of retinas with 0-10% neovascular inhibition” value [3] was 50%. The “Percentage of retinas with 10-25% neovascular inhibition” value [3] was 37.5%, the “Percentage of retinas with 25-50% neovascular inhibition” value [3] was 12.5% and the “Percentage of retinas with 50-75% neovascular inhibition” value [3] was 0%. The “Percentage of retinas with 100% neovascular inhibition” value [3] was 0%, the “Percentage of retinas with >75% neovascular inhibition” value [3] was 0% and the “Percentage of retinas with >90% neovascular inhibition” value [3] was 0%. The “retinas that developed a normal, complete deep vascular plexus” value (monotherapy at optimal dose) was 24%, the “retinas that exhibited over 75% inhibition” value (monotherapy at optimal dose) was 35% and the “efficacy at the 95-100% inhibition level” value (with increasing dosages, Examples 10 and 11) was no more than 50%.

— US7528106B2, “Compositions and methods for treatment of neovascular diseases” (The Scripps Research Institute, priority 2004, dated 2009)
